test system: MS2 coat protein; assay: apparent KD of MS2 coat protein; designed switch direction (-1 OFF switch, 1 ON switch): 1; higher = weaker reporter binding; details: Eterna round: R95; input ligand: FMN 200 uM
Method in brief: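 The buffer was Tris-HCl pH 7.5 with KCl, MgCl2, BSA, DTT, tRNA and Tween-20. In it, SNAP-549-labelled MS2 coat protein was titrated in doubling steps from 0.7 or 1.5 nM to 3 µM over chip-bound RNA switches transcribed by stalled E. coli RNA polymerase on Illumina chips. Apparent KD is the per-design median over clusters of curve fits to normalised fluorescence.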

Sequence	apparent KD of MS2 coat protein [µM]
GGUUUAGUCAGGCACAAUUGCGCCUGAAAACAUGAGGAUCACCCAUGUUUGGGACAAGCUUUGCUCCUCGUCUUGCA [Enzati] (puzzle: Sensor for hsa-mir-208a)	0.306

same assay, conditions: Eterna round: R95; input ligand: microRNA oligo, concentration not stated

Sequence	apparent KD of MS2 coat protein [µM]
GAUUAACAUGAGGAUCACCCAUGUCGUUAUAUGGGAGGAUAUACGUGGACCGUAGUCCGCGUAGAAGGCCUAAUUG [Mat - Same State 1 - Mod of JL - D23] (puzzle: Same State 1)	0.188
GGUUUAGUCAGGCACAAUUGCGCCUGAAAACAUGAGGAUCACCCAUGUUUGGGACAAGCUUUGCUCCUCGUCUUGCA [Enzati] (puzzle: Sensor for hsa-mir-208a)	0.0681

same assay, conditions: Eterna round: R95; input ligand: none

Sequence	apparent KD of MS2 coat protein [µM]
GGUUUAGUCAGGCACAAUUGCGCCUGAAAACAUGAGGAUCACCCAUGUUUGGGACAAGCUUUGCUCCUCGUCUUGCA [Enzati] (puzzle: Sensor for hsa-mir-208a)	0.385

test system: MS2 coat protein; assay: apparent KD of MS2 coat protein; higher = weaker reporter binding; details: Eterna round: R107; input ligand: arginine 13.2 mM
Method in brief: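 Apparent KD stands for the median, per design, of fits to normalised cluster binding curves. The curves came from titrating on-chip-transcribed RNA switches on Illumina sequencing clusters with SNAP-549-labelled MS2 coat protein, twofold from 0.7 or 1.5 nM to 3 µM. Buffer was 100 mM Tris-HCl pH 7.5, 80 mM KCl, 4 mM MgCl2, without or with constant ligand.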

Sequence	apparent KD of MS2 coat protein [µM]
UUAAUCUUGGAUGAAAACAUUUAAGCAGAAGGAGCGUGAUAAAACACAGGUAGGUCGCUGAAGGGAACAUGAGGAUCACCCAUGU [AstrosSSArgA#15]	0.0225
UAAACUACACAUGAGGAUCACCCAUGUGGCCGAGGACCGGUACGGCCGCCACUCGUGUGUUAAUAAAAGAACUGCAAGGUUCUUC [Uslausce]	0.0761
CGUAUUGGAAACAGUACGAGUGAUCCGGUCCGAGGACCGGUACGGCCGCCACUCGAAAAUAAAUAACAUGAGGAUCACCCAUGUA [Ex Tryptophan A 8]	0.0195
UCGGUUUUCUACAUGAGGAUCACCCAUGUCCGAGGACCGGUACGGCCGCCACUCGCAAUCAAACAGACGUGGGCCAAAUUUGCGU [Isinso]	0.0118
GUUUACAUGAGGAUCACCCAUGUCGCCGGCCGAGGACCGGUACGGCCGCCACUCGUCCUAAUGGCACUUGACUUCCCUAUUAAGU [theeternabot_sameState_MS2_Trp_A_33]	0.0204
GGCCAUGGAAACAUGGCGGCGGCAUAUGCGCGAGGACCGGUACGGCCGCCACUCGGGCAACAUGAGGAUCACCCAUGUUCCUCAU [ETA NP+V+V2 #24 +-Same Structure]	0.0674
GCCUAGCAGCGAAGGAGCGAGGUAACUUAAUAAAUAAAUACAAGAGGAUCACCCUUGUUUCCUCAGGUAGGUCGCGCUGCUAGGC [SSAB Alternative Aptamer #2 NP+V+V2]	0.0182
ACGACGCAUACAGAUACCAGUAGAACAUGAGGAUCACCCAUGUCUGAGGCGCUCCGCCACUGCCCUUGGCAGCUGUAUGCGUCAG [SSTheo B #11]	0.00942
GGUCUGUGGAGCGAUACCAGCUUGAGUGUACUGGCCAGGUACAUGAGGAUCACCCAUGUAAGCCCUUGGCAGCGCUCCAGAGACC [#1 Exclusion - Theophylline B Attempt #17 (HarryS)]	0.00742
GGGUGCGGGAUAGAUACCAGUGCCUUAAAAUAGGCACAUGAGGAUCACCCAUGUACCGGGCGCCCUUGGCAGCUAGUACCAUCCA [Edanrele]	0.0939
UGAUGGUUCGGAAGGAGCGUGUAAGAACAAGAACAUGAGGAUCACCCAUGUAUUAAUUUAACACAGGUAGGUCGCCGAGUUAUUG [11.I]	0.0126
ACUCGGUGUUUGUUGCUCCGAGUGUAUGAUACCAGUUAGUUUUAUGGCCCUUGGCAGCAUAGGACAUGAGGAUCACCCAUGUGUU [#02 SameState-TheophyllineA]	0.0273
CGAUGAUCGAGGGAUACCAGAAAUGGUAUUCCUUUAUUUCUUACAUGAGGAUCACCCAUGUUCCCUUGGCAGCUUUUGAUCAUCG [ETHB #7]	0.0605
CUCUGGUGCUGAGUGAGUGUCGUGACUGAUACCAGAUGCCUUUACAUCCCUUGGCAGCAGUACAUGAGGAUCACCCAUGUAUUCC [Rireusrama]	0.0172
ACGUUGUAGUCGGCCGCCACUGUUUUCAUGUUCAACAUGAGGAUCACCCAUGUACCUUUUUUUAUCAGGACCGGGACGUAUUCGA [JR_SSTryptoB_Sub003]	0.0465
ACAUGAGGAUCACCCAUGUAGUGGCACGAUACCAGCUGAUCCCGUGGCCCUUGGCAGCGUCCGGUGUGGUCUGCCGGGAUGGAGC [WBWMULLIN]	0.025
UUGACAUGAGGAUCACCCAUGUAAACUGAAGGAGCGUCGAAAAUGACAGGUAGGUCGCAGAAUAAUAAUGGUGAUCGUAAAUAUU [#12 Exclusion - Arginine A]	0.0426
CGAACAUGAGGAUCACCCAUGUUAACCGAAGGAGCGGCGCAUAAGUCAGGUAGGUCGCGGUAGAUGAAAUAGAGCAGUGGUGACA [#01 Same State - Arginine A]	0.0244
UGUAUGGACUGAAGGAGCGGGUAAUAAACUUGAGGAUCACCCAGGUAAUAGGCGAAAGCCACCCAGGUAGGUCGCAGUCCAUACU	0.0327
UUAGUAACGACGGCCGCCACUGAUUUUGGACAUGAGGAUCACCCAUGUAAAGAUCCUAGAAUGGUCAGGACCGGGUCUGAUAAUG [Exclusion Tryptophane B GF4]	0.035
UUAAUGAUAUAUCAUAUGAUAUAUCCAGAAGGAGCGUCAUAAAUGGCAGGUAGGUCGCUGAAGGCAACAUGAGGAUCACCCAUGU [#16 Same State - Arginine A]	0.0201
AUACAUGAGGAUCACCCAUGUCAUUCAGAAGGAGCGUCAUUAUUGACAGGUAGGUCGCUGAUAAAAUUUUUAUACAUUAUGUUUA [JR_SSArginiA_Sub014]	0.0319
UGUAUGGGAACAUGAGGAUCACCCAUGUGGCGAGGACCGGUACGGCCGCCACUCGAGCAGCAAGCGUGUAUGACGCUGCUGCAUG [ss-trypA-0mod]	0.225
ACUAGAGGUGGAAGGAGCGGGAGACAUGAGGAUCACAUGAGGAUCACCCAUGUAGGAUCAUCCCAGGUAGGUCGCCAUGUCGAAA [,mmlmullin]	0.046
ACACGUGACAAGGAUACCAGCCUGGCUAGUUCAAACCCUCACAUGAGGAUCACCCAUGUAGGCCCUUGGCAGCCUAUAGUCUAAG [theeternabot_exclusion_MS2_Theo_B_38]	0.0277
AAAUAAAUCACAUGAGGAUCACCCAUGGAUACCAGGCCUGGAAACAGCCCUUGGCAGCCACAUGAGGAUCACCCAUGUGCUAAAU [MAT - Exclusion Theophlline A - Mod of Eli - D2]	0.0984
AUAUGAUCAUAUGAUACCAGAAAUGGUAUUCCUUUGUUUCUUACAUGAGGAUCACCCAUGUUCCCUUGGCAGCAUAUGAUCAUAU [ETHB #2]	0.159
GGAUAGGACGGAAGGAGCGACGUGAGGCUAAUGUCCAGUCUUCUACAUGAGGAUCACCCAUGUCAGGUAGGUCGCCGUCCUAUCG [#21 Exclusion - Arginine B]	0.0303
CUGCUACAUGAGGAUCACCCAUGUGGAGAUACCAGCCUGAACGAUGGCCCUUGGCAGCUCUUAGCUGGUGAUCAUAUAUUUCAGA [Zazaat]	0.0253
GCCAUCGGCGGAAGCCGAUGGUAUACAGAAGGAGCGUAGGAAACUACAGGUAGGUCGCUGGACAUGAGGAUCACCCAUGUAAUAG [#27 Same State - Arginine A]	0.0222

From the supplement of paper PMC9170038
